# Results taken from patent US12697371B2, “Method for preventing, treating or delaying myocardial damage using neuregulin and composition” (ZENSUN (SHANGHAI) SCIENCE & TECHNOLOGY, CO., LTD., priority 2019, dated 2026).
# “Also recorded” adds a separate entry of the source.
# Columns and labels:
# [1] = tested on: rats with acute myocardial infarction caused by left coronary artery ligation; test: Echocardiography, rat acute myocardial infarction, long-term subcutaneous NRG followed by withdrawal through frequency reduction (Example 3); assay type: in vivo, Wistar rats
# Procedure: Established in the same way as the rat model of heart failure caused by coronary artery ligation in 5.1, Embodiment 1
# The rats were randomly divided into groups and medicated upon coronary artery ligation. According to post-ligation survival, the rats were randomly divided into two groups, including the excipient group and the NRG30 μg/kg group. There were 19 rats in the excipient group and there were 18 rats in the NRG group. Continuous administration of medicine started on the day following the modeling, with subcutaneous administration for 3 times a day, at a dose of 10 μg/kg. Echocardiography was performed on day 14 after modeling. All the animals were medicated continuously until day 38, and the animals in the NRG group were examined by echocardiography. The animals in the NRG group were averagely divided into two subgroups, with the animals in one subgroup continuing to be medicated while the animals in the other subgroup stopped taking medicine at an early stage. The excipient group continued to be medicated. For the continuous NRG administration subgroup, a 3-week withdrawal plan was implemented on day 49: medicated every other day in the first week; medicated every three days in the second week; subcutaneously injected with NRG every four days in the third week. In terms of administration method, the rats were subcutaneously injected with NRG 3 times a day, exactly the same as above. For the NRG withdrawal subgroup, the clinical symptoms of the rats were observed. All the animals underwent echocardiography every week for monitoring of the changes in the cardiac function.
# (§1) After being anesthetized with 4% isoflurane, the rats were fixed onto the operating board in the left lateral recumbent position. The head of the rats was fixed in the breathing mask of the gaseous anesthesia machine, with isoflurane used for maintenance of anesthesia. After chest hair removal, the skin was disinfected with 75% alcohol and coated with a coupling agent. An echocardiography probe was used to detect any echo signal from the left ventricle of the rats. The left ventricular end-diastolic diameter and left ventricular end-systolic diameter (D) were measured. The left ventricular end-diastolic volume (EDV) and end-systolic volume (ESV) were calculated. Also, the ejection fraction (EF) value was found, EF=(EDV−ESV)/EDV*100%.
# All experimental data were expressed in ±SD. GraphPad Prism6 was used for one-way ANOVA analysis. P<0.05 indicates a significant inter-group difference; P<0.01 indicates an extremely significant inter-group difference.
# [2] = tested on: rats with acute myocardial infarction caused by left coronary artery ligation; test: Echocardiography, rat acute myocardial infarction (left coronary artery ligation), 60-day subcutaneous NRG at different doses (Example 1); assay type: in vivo, Wistar rats; settings: for EF / LVEDd / LVEDs: 3 times a day
# Text: 5.1 Establishment of a Rat Model of Heart Failure Caused by Coronary Artery Ligation
# The rats were anesthetized with isoflurane through a gaseous anesthesia apparatus. Then, the rats were fixed in a supine position. After chest hair removal, the skin was disinfected with 75% alcohol. After the incision of the left anterior chest skin, the thoracic muscles were bluntly separated, with the 4th and 5th ribs exposed. Hemostatic forceps were used to bluntly cut off the muscle between the 4th and 5th ribs. Both hands were used to squeeze the heart out of the thoracic cavity so that the heart should be fully exposed for observation of lung inflation and heartbeats. The left atrial appendage and pulmonary conus were fully exposed to ligate the left anterior descending coronary artery (LADCA) with surgical suture between them. […] Then, the thoracic muscles and skin were sutured. After surgery, the rats were put back into the cages for feeding and close observations.
# Administration began on the day following the animal model establishment of myocardial infarction.
# as §1
# [3] = DAY 14, 30 μg/kg sc (10 μg/kg 3 times a day), continuous
# [4] = DAY 21, 30 μg/kg sc (10 μg/kg 3 times a day), continuous
# [5] = DAY 28, 30 μg/kg sc (10 μg/kg 3 times a day), continuous
# [6] = DAY 35, 30 μg/kg sc (10 μg/kg 3 times a day), continuous
# [7] = DAY 38, Administration subgroup, 30 μg/kg sc continued
# [8] = DAY 38, Withdrawal subgroup, 30 μg/kg sc until day 38, then stopped
# [9] = DAY 42, Administration subgroup, 30 μg/kg sc continued
# [10] = DAY 42, Withdrawal subgroup, 30 μg/kg sc until day 38, then stopped
# [11] = DAY 49, Administration subgroup, 30 μg/kg sc continued
# [12] = DAY 49, Withdrawal subgroup, 30 μg/kg sc until day 38, then stopped
# [13] = DAY 56, Administration subgroup, 30 μg/kg sc, 3-week gradual withdrawal by frequency reduction from day 49
# [14] = DAY 56, Withdrawal subgroup, 30 μg/kg sc until day 38, then stopped
# [15] = DAY 63, Administration subgroup, 30 μg/kg sc, 3-week gradual withdrawal by frequency reduction from day 49
# [16] = DAY 63, Withdrawal subgroup, 30 μg/kg sc until day 38, then stopped
# [17] = DAY 68, Administration subgroup, 30 μg/kg sc, 3-week gradual withdrawal by frequency reduction from day 49
# [18] = DAY 68, Withdrawal subgroup, 30 μg/kg sc until day 38, then stopped
# [19] = DAY 74, Administration subgroup, 30 μg/kg sc, 3-week gradual withdrawal by frequency reduction from day 49
# [20] = DAY 74, Withdrawal subgroup, 30 μg/kg sc until day 38, then stopped
molecule,measurement,setting,value
"NRG: fragment of the NRG-1β2 isomer, 177-237 amino acid fragment containing an EGF-like domain (SEQ ID NO: 1); developed by Zensun (protein, listed as Homo sapiens) SHLVKCAEKEKTFCVNGGECFMVKDLSNPSRYLCKCPNEFTGDRCQNYVMASFYKAEELYQ","LVEDd and LVEDs, cardiac systolic function, left ventricular remodeling","[1]; 30 μg/kg sc, after 35 consecutive days","significantly reduce the LVEDd and LVEDs and strengthen the cardiac systolic function, thereby reversing left ventricular remodeling"
same,EF,[1]; [3],44.5 ± 7.85 %
same,LVEDd,[1]; [3],0.860 ± 0.04 cm
same,LVEDs,[1]; [3],0.694 ± 0.06 cm
same,EF,[1]; [4],45.5 ± 7.96 %
same,LVEDd,[1]; [4],0.905 ± 0.04 cm
same,LVEDs,[1]; [4],0.725 ± 0.06 cm
same,EF,[1]; [5],44.3 ± 6.95 %
same,LVEDd,[1]; [5],0.928 ± 0.05 cm
same,LVEDs,[1]; [5],0.749 ± 0.06 cm
same,EF,[1]; [6],44.9±6.09%
same,LVEDd,[1]; [6],0.953±0.05 cm
same,LVEDs,[1]; [6],0.767±0.06 cm
same,EF,[1]; [7],44.9 ± 7.03%
same,LVEDd,[1]; [7],0.953 ± 0.06 cm
same,LVEDs,[1]; [7],0.764 ± 0.07 cm
same,EF,[1]; [8],44.7 ± 6.26%
same,LVEDd,[1]; [8],0.952 ± 0.05 cm
same,LVEDs,[1]; [8],0.767 ± 0.07 cm
same,EF,[1]; [9],46.5 ± 4.01 %
same,LVEDd,[1]; [9],0.948 ± 0.04 cm
same,LVEDs,[1]; [9],0.755 ± 0.04 cm
same,EF,[1]; [10],39.1 ± 7.11 %
same,LVEDd,[1]; [10],0.969 ± 0.04 cm
same,LVEDs,[1]; [10],0.808 ± 0.05 cm
same,EF,[1]; [11],45.0±5.51%
same,LVEDd,[1]; [11],0.973±0.07 cm
same,LVEDs,[1]; [11],0.783±0.08 cm
same,EF,[1]; [12],42.2±5.48%
same,LVEDd,[1]; [12],0.987±0.05 cm
same,LVEDs,[1]; [12],0.807±0.06 cm
same,EF,[1]; [13],38.8 ± 3.78 %
same,LVEDd,[1]; [13],1.008 ± 0.06 cm
same,LVEDs,[1]; [13],0.843 ± 0.06 cm
same,EF,[1]; [14],39.0 ± 6.24 %
same,LVEDd,[1]; [14],1.031 ± 0.05 cm
same,LVEDs,[1]; [14],0.859 ± 0.07 cm
same,EF,[1]; [15],41.3±4.92%
same,LVEDd,[1]; [15],0.989±0.07 cm
same,LVEDs,[1]; [15],0.814±0.08 cm
same,EF,[1]; [16],35.4±6.78%
same,LVEDd,[1]; [16],1.043±0.06 cm
same,LVEDs,[1]; [16],0.887±0.06 cm
same,EF,[1]; [17],40.8±4.67%
same,LVEDd,[1]; [17],0.976±0.06 cm
same,LVEDs,[1]; [17],0.805±0.07 cm
same,EF,[1]; [18],38.9±5.04%
same,LVEDd,[1]; [18],1.010±0.06 cm
same,LVEDs,[1]; [18],0.842 ± 0.06 cm
same,EF,[1]; [19],38.0 ± 3.81 %
same,LVEDd,[1]; [19],1.004 ± 0.05 cm
same,LVEDs,[1]; [19],0.842 ± 0.05 cm
same,EF,[1]; [20],34.6 ± 7.55%
same,LVEDd,[1]; [20],1.060 ± 0.05 cm
same,LVEDs,[1]; [20],0.905 ± 0.05 cm
same,Effect of sudden withdrawal on cardiac function,"[1]; day 49, withdrawal subgroup stopped after day 38",exerted some effect on the cardiac function of the rats
same,"Cardiac function and cardiac remodeling, overall conclusion",[1]; long-term sc administration followed by withdrawal through frequency reduction,can improve the cardiac function of the rats with myocardial infarction and reduce cardiac remodeling
same,EF,"[2]; DAY 20, 3.75 μg/kg/D sc",39.7 ± 10.84%
same,LVEDd,"[2]; DAY 20, 3.75 μg/kg/D sc",0.937 ± 0.06 cm
same,LVEDs,"[2]; DAY 20, 3.75 μg/kg/D sc",0.777 ± 0.08 cm
same,EF,"[2]; DAY 20, 7.5 μg/kg/D sc",41.9 ± 15.17%
same,LVEDd,"[2]; DAY 20, 7.5 μg/kg/D sc",0.924 ± 0.05 cm
same,LVEDs,"[2]; DAY 20, 7.5 μg/kg/D sc",0.756 ± 0.08 cm
same,EF,"[2]; DAY 20, 15 μg/kg/D sc",40.6 ± 9.15%
same,LVEDd,"[2]; DAY 20, 15 μg/kg/D sc",0.908 ± 0.05 cm
same,LVEDs,"[2]; DAY 20, 15 μg/kg/D sc",0.759 ± 0.08 cm
same,EF,"[2]; DAY 40, 3.75 μg/kg/D sc",40.4 ± 12.86%
same,LVEDd,"[2]; DAY 40, 3.75 μg/kg/D sc",0.982 ± 0.09 cm
same,LVEDs,"[2]; DAY 40, 3.75 μg/kg/D sc",0.813 ± 0.13 cm
same,EF,"[2]; DAY 40, 7.5 μg/kg/D sc",40.5 ± 13.39%
same,LVEDd,"[2]; DAY 40, 7.5 μg/kg/D sc",0.946 ± 0.08 cm
same,LVEDs,"[2]; DAY 40, 7.5 μg/kg/D sc",0.782 ± 0.12 cm
same,EF,"[2]; DAY 40, 15 μg/kg/D sc",42.2 ± 11.27%
same,LVEDd,"[2]; DAY 40, 15 μg/kg/D sc",0.946 ± 0.08 cm
same,LVEDs,"[2]; DAY 40, 15 μg/kg/D sc",0.775 ± 0.11 cm
same,EF,"[2]; DAY 60, 3.75 μg/kg/D sc",37.0±12.23%
same,LVEDd,"[2]; DAY 60, 3.75 μg/kg/D sc",0.994±0.08 cm
same,LVEDs,"[2]; DAY 60, 3.75 μg/kg/D sc",0.839±0.12 cm
same,EF,"[2]; DAY 60, 7.5 μg/kg/D sc",38.4±12.17%
same,LVEDd,"[2]; DAY 60, 7.5 μg/kg/D sc",0.965±0.07 cm
same,LVEDs,"[2]; DAY 60, 7.5 μg/kg/D sc",0.808±0.11 cm
same,EF,"[2]; DAY 60, 15 μg/kg/D sc",42.9±11.32%
same,LVEDd,"[2]; DAY 60, 15 μg/kg/D sc",0.975±0.07 cm
same,LVEDs,"[2]; DAY 60, 15 μg/kg/D sc",0.794±0.10 cm
same,Cardiac function / EF value compared with the control group,"[2]; high-, middle- and low-dose groups (15, 7.5, 3.75 μg/kg/D sc), after 60 days of continuous administration",all improved; also recorded: higher than that of the control group
same,LVEDd and LVEDs compared with the excipient group,"[2]; high-dose group (15 μg/kg/D sc), 60 days",could be reduced
